# Molecular target: recombinant biotinylated SARS-CoV-2 spike RBD, wild type (SARS-CoV-2) (UniProt P0DTC2)
# Test: BLI
# Conditions: bispecific antibody
row,Substance,Kd [nM]
1,"bispecific antibody BI-1C2C (IgG-ScFv format, from mAbs 13-1C and 6-2C) (from UniProt P01857)",2.16
2,"bispecific antibody BI-2C1C (IgG-ScFv format, from mAbs 6-2C and 13-1C) (from UniProt P01857)",1.04
3,bispecific antibody BI-2C5B (IgG-ScFv format: 6-2C IgG with 10-5B ScFv) (from UniProt P01857),4.71
4,bispecific antibody BI-5B2C (IgG-ScFv format: 10-5B IgG with 6-2C ScFv) (from UniProt P01857),4.89
